According to patent US20220306719A1 (JULIUS MAXIMILIANS UNIVERSIT T W RZBURG, published 2022):
“And” between values parts separate entries of the source, which are not always exact repeats. Equal entries are not always repeated.

Key:
Experiment in all cases: cell-based or functional assay
[1] = target: CD19_IgG3_MiH5 CAR (FMC63 scFv, IgG3_MiH5 spacer, CD28tm, 4-1BB/CD3zeta) (human)
[2] = target: CD19_IgG3_MiH4 CAR (FMC63 scFv, IgG3_MiH4 spacer, CD28tm, 4-1BB/CD3zeta) (human)
[3] = target: CD19_IgG3_MiH3 CAR (FMC63 scFv, IgG3_MiH3 spacer, CD28tm, 4-1BB/CD3zeta) (human)
[4] = target: R11_IgG3_MiH5/MiH3 CAR (advanced IgG3 format, ROR1-specific R11 scFv)
[5] = target: CD19_IgG3_MiH5/MiH1 CAR (advanced IgG3 format: FMC63 scFv with MiH5 linker between the variable domains, MiH1 …)
[6] = target: CD19_IgG3_MiH1 CAR (FMC63 scFv, IgG3_MiH1 spacer, CD28tm, 4-1BB/CD3zeta)
[7] = target: CD20_IgG3_MiH5/MiH3 CAR (advanced IgG3 format, Leu16 scFv)
[8] = target: R11_IgG3_MiH3 CAR (ROR1-specific R11 scFv, IgG3_MiH3 spacer)
Sequence of R11_IgG3_MiH3 CAR (ROR1-specific R11 scFv, IgG3_MiH3 spacer) (chain, as listed by the source): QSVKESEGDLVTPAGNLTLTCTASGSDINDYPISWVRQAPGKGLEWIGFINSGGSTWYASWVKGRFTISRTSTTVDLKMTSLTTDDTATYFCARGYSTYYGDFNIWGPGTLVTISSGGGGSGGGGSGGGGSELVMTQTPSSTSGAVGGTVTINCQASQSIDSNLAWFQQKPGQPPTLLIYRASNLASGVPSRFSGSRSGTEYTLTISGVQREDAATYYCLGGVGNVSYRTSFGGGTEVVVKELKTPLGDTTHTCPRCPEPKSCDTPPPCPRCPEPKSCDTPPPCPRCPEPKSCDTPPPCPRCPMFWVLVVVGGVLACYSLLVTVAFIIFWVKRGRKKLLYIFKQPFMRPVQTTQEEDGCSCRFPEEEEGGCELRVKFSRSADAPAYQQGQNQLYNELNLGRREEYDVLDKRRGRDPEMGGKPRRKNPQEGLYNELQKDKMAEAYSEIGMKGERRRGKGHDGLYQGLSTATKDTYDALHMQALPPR

Sequence of CD19_IgG3_MiH5 CAR (FMC63 scFv, IgG3_MiH5 spacer, CD28tm, 4-1BB/CD3zeta) (human) (chain, as listed by the source): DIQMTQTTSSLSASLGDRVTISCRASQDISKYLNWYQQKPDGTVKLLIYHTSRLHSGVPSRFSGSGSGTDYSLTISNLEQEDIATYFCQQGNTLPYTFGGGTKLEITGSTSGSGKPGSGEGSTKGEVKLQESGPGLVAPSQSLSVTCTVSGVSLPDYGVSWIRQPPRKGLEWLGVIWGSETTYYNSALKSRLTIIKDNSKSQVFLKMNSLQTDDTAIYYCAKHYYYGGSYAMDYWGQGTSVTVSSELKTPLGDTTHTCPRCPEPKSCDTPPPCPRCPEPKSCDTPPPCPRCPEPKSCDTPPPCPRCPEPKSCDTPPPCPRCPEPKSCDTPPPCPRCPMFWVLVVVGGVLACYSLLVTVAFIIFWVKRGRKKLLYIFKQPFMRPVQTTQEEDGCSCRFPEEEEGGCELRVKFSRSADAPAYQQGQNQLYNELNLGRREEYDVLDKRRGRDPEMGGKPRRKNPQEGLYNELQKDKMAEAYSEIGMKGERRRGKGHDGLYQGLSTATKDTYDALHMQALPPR
Sequence of CD20_IgG3_MiH5/MiH3 CAR (advanced IgG3 format, Leu16 scFv) (chain, as listed by the source): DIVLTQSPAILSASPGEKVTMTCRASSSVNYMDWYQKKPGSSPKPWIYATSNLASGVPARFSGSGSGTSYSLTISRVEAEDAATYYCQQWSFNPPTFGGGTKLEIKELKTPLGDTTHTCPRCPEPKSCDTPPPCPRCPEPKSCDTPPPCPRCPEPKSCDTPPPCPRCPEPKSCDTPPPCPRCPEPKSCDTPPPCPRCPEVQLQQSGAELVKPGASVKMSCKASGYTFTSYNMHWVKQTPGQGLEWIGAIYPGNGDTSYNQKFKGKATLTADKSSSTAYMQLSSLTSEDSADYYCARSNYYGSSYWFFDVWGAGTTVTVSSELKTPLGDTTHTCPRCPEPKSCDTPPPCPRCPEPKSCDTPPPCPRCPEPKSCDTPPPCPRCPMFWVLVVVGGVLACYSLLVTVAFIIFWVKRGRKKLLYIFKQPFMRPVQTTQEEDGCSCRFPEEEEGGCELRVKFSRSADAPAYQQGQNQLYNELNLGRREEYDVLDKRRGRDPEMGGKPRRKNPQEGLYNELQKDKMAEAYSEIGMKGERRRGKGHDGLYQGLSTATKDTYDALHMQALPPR
Sequence of R11_IgG3_MiH5/MiH3 CAR (advanced IgG3 format, ROR1-specific R11 scFv) (chain, as listed by the source): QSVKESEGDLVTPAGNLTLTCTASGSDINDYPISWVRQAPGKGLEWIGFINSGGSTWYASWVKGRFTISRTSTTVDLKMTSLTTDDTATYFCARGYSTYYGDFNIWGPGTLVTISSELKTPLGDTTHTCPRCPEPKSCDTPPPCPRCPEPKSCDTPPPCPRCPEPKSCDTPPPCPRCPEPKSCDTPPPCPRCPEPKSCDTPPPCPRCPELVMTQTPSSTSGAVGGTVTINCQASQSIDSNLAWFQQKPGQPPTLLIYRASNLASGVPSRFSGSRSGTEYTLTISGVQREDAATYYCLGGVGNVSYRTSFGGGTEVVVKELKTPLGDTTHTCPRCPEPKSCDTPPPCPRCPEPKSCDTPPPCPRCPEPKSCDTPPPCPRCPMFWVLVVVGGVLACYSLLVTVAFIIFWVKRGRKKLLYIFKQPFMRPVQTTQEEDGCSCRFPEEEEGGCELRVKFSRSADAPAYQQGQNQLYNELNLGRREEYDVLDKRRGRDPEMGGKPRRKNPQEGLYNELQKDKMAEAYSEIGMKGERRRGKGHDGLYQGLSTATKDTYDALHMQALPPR
Sequence of CD19_IgG3_MiH3 CAR (FMC63 scFv, IgG3_MiH3 spacer, CD28tm, 4-1BB/CD3zeta) (human) (chain, as listed by the source): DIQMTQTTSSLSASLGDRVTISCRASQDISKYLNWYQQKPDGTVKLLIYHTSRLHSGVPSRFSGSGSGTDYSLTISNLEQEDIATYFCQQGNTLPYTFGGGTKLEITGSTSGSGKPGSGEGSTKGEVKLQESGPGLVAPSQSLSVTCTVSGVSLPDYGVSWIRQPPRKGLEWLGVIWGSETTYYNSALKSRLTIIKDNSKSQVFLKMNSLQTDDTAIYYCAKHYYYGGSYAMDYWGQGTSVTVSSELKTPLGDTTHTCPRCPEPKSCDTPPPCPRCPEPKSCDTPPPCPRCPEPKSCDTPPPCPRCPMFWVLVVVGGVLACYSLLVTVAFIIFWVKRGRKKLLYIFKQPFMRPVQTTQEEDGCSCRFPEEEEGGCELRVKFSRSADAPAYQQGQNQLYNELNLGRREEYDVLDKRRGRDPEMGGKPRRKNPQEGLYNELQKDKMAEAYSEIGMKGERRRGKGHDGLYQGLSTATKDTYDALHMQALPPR
Sequence of CD19_IgG3_MiH4 CAR (FMC63 scFv, IgG3_MiH4 spacer, CD28tm, 4-1BB/CD3zeta) (human) (chain, as listed by the source): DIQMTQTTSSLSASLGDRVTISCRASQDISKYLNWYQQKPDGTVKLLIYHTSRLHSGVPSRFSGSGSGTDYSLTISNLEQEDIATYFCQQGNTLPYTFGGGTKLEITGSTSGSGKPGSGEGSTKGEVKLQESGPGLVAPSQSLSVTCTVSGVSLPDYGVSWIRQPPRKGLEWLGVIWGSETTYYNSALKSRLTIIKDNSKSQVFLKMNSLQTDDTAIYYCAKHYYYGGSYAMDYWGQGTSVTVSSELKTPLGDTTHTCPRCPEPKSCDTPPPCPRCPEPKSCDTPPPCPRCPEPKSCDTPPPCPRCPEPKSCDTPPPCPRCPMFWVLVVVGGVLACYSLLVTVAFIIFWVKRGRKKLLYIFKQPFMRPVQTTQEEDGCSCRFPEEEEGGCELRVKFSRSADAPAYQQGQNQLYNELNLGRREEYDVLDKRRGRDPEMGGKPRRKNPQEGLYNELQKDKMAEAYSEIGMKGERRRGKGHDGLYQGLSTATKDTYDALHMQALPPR
Sequence of CD19_IgG3_MiH5/MiH1 CAR (advanced IgG3 format: FMC63 scFv with MiH5 linker between the variable domains, MiH1 …) (chain, as listed by the source): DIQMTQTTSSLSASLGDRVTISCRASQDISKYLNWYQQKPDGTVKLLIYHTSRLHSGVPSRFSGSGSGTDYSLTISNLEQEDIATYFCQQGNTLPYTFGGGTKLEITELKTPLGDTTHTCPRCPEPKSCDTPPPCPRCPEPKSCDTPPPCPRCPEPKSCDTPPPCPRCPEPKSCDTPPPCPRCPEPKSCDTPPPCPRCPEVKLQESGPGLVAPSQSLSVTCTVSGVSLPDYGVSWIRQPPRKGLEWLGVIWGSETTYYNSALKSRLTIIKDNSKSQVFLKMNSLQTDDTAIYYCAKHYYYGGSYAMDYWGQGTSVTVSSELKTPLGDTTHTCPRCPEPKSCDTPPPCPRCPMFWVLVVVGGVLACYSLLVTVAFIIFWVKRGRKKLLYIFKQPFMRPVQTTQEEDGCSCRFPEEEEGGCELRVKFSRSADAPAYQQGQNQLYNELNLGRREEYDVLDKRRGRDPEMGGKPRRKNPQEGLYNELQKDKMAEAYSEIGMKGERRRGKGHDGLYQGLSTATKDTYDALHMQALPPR
Sequence of CD19_IgG3_MiH1 CAR (FMC63 scFv, IgG3_MiH1 spacer, CD28tm, 4-1BB/CD3zeta) (chain, as listed by the source): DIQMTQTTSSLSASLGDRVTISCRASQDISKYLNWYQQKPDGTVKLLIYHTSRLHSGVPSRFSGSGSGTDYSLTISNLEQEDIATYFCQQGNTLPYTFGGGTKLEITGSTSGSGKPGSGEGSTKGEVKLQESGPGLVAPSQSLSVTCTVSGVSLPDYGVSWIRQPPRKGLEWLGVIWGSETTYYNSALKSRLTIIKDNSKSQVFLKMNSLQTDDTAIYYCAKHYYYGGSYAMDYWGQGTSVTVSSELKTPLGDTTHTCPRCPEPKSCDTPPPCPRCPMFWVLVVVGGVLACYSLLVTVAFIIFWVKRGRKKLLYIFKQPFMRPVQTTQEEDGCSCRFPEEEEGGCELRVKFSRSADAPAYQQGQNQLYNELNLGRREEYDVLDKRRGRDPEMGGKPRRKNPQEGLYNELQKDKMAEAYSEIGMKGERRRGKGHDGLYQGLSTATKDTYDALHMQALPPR

B1: anti-MiH antibody #1 (antibody, V domains shown)
VH: QVQLLESGPGLVAPSQTLSITCTVSGFSFTNYDLHWVRQPPGKGLEWLGVIWAVGSTNYNSALMSRLSISKDNSKSQVFLKMNSLQTDDTAIYYCAREEDYRYGMDYWGQGTSVTVSS
VL: ELVMTQSPLSLPVSLGDQASISCRSSQSLVHSNGNTYLHWYLQKPGQSPKLLIYKVSNRFSGVPDRFSGSGSGTDFTLKISRVEAEDLGVYFCSQSTHVPYTFGGGTKLEIK
expansion of CAR T cells after one week on plate-bound antibody [1]: 4 fold | expansion of CAR T cells after one week on plate-bound antibody [2]: 4 fold | increase in CAR T cell numbers after 7 days of stimulation on plate-bound antibody [3]: > 2 fold

B2: anti-MiH antibody #1-ADC (anti-MiH antibody #1 conjugated to an anthracycline-based cytotoxic payload) (antibody, V domains shown)
VH: QVQLLESGPGLVAPSQTLSITCTVSGFSFTNYDLHWVRQPPGKGLEWLGVIWAVGSTNYNSALMSRLSISKDNSKSQVFLKMNSLQTDDTAIYYCAREEDYRYGMDYWGQGTSVTVSS
VL: ELVMTQSPLSLPVSLGDQASISCRSSQSLVHSNGNTYLHWYLQKPGQSPKLLIYKVSNRFSGVPDRFSGSGSGTDFTLKISRVEAEDLGVYFCSQSTHVPYTFGGGTKLEIK
modifications: conjugated to an anthracycline-based cytotoxic payload (chain and site not stated)
ADC concentration with the told effect on viable CAR T cells (72 h) [4]: 500 ng/mL and 5000 ng/mL | ADC concentration with the told effect on viable CAR T cells (72 h) [1]: 50 ng/mL and 5000 ng/mL | ADC concentration with the told effect on viable CAR T cells (72 h) [2]: 5 µg/mL | ADC concentration with the told effect on viable CAR T cells (72 h) [3]: 5 µg/mL | ADC concentration with the told effect on viable CAR T cells (72 h) [5]: 5 µg/mL | ADC concentration with the told effect on viable CAR T cells (72 h) [6]: 10 µg/mL | ADC concentration with the told effect on viable CAR T cells (72 h) [7]: 500 ng/mL and 5000 ng/mL | ADC concentration with the told effect on viable CAR T cells (72 h) [8]: 500 ng/mL and 5000 ng/mL
